According to patent US20150104466A1 (WISCONSIN ALUMNI RESEARCH FOUNDATION, published 2015):
Values joined by “and” are separate entries in the source; they are usually repeats but may differ in a detail not shown here. Equal entries are not always repeated.

Assays:
β3 integrin = biological target: T1, β3 integrin (human, UniProt P05106 27-788); assay: His-tag pull-down on nickel beads from NHDF lysate, Western blot for β3 integrin
T1 construct: also called β3 integrins

β1 integrin = β1 integrin (human, UniProt P05556 21-798); assay: cell-based or functional assay
Chain of β1 integrin (P05556 21-798): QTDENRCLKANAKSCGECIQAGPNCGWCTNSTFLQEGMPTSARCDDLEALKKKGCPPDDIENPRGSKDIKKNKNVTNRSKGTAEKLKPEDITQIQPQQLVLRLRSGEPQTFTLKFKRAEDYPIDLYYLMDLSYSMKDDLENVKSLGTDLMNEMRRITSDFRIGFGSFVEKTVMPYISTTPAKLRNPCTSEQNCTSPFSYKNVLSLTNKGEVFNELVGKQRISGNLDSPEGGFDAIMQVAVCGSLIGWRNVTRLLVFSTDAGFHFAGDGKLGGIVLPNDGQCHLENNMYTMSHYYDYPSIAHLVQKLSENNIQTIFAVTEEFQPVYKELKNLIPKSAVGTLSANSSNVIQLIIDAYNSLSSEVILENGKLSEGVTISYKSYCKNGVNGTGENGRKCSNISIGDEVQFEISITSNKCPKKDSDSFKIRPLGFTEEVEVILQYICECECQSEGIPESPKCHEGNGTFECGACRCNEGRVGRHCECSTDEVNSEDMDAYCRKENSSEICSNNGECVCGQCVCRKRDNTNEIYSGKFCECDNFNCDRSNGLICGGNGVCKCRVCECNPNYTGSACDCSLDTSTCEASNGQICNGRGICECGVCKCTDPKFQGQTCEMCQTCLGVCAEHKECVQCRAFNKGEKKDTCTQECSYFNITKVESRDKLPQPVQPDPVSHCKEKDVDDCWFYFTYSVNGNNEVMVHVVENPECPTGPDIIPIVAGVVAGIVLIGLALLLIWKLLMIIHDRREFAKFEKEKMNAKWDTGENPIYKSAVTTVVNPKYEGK

T1 sequence (P05106 27-788 limits assumed): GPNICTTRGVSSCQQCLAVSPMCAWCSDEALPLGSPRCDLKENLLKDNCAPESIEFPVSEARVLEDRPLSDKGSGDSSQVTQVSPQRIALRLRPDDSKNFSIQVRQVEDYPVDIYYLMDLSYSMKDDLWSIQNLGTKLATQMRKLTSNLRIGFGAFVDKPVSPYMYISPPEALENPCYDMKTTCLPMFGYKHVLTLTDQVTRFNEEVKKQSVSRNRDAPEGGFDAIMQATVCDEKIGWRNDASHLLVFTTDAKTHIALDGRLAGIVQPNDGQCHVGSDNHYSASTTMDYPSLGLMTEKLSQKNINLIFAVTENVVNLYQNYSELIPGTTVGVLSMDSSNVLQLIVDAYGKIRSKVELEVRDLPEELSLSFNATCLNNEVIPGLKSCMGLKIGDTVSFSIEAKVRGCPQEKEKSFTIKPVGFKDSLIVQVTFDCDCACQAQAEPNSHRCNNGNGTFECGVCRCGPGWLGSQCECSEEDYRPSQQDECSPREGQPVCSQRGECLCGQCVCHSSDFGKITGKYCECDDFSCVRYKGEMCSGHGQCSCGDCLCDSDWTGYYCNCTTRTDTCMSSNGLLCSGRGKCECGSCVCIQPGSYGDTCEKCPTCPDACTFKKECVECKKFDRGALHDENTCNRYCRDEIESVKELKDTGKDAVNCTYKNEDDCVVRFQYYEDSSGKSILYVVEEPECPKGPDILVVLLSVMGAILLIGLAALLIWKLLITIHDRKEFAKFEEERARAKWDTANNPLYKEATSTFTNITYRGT

B1: HCMV AD169 glycoprotein B disintegrin-like domain (amino acids 57-146), His-tagged, expressed in E. coli (other)
chain: VTSSEAVSHRANETIYNTTLKYGDVVGVNTTKYPYRVCSMAQGTDLIRFERNIICTSMKPINEDLDEGIMVVYKRNIVAHTFKVRVYQKV
notes: range 57-146; also called gBDLD; gBDLD fragment; not shown: N-terminal His-Tag with thrombin cleavage site from vector pET-28a
binding result (β3 integrin): no binding (tested: 20 µg gBDLD in 350 µL cell lysate)
IC50 for HCMV neutralization (HCMV-GFP infectivity of NHDFs, flow cytometry) (β1 integrin): 20.5 µg/mL and 1.96 µM
